Experimental data reported in article doi:10.1101/2024.12.20.629533.

Target: VgrS (residues 81-729), Salmonella Typhimurium VgrG (Salmonella enterica serovar Typhimurium)
Assay: crystal structure

Substance: VgrS (residues 81-729), Salmonella Typhimurium VgrG (domain or fragment)
- stoichiometry N: 3
